Experimental data reported in IntAct's records for PubMed 25873389.

B1: Protein deacetylase HDAC6 (Homo sapiens), Q9UBN7 (parent)
chain: MTSTGQDSTTTRQRRSRQNPQSPPQDSSVTSKRNIKKGAVPRSIPNLAEVKKKGKMKKLGQAMEEDLIVGLQGMDLNLEAEALAGTGLVLDEQLNEFHCLWDDSFPEGPERLHAIKEQLIQEGLLDRCVSFQARFAEKEELMLVHSLEYIDLMETTQYMNEGELRVLADTYDSVYLHPNSYSCACLASGSVLRLVDAVLGAEIRNGMAIIRPPGHHAQHSLMDGYCMFNHVAVAARYAQQKHRIRRVLIVDWDVHHGQGTQFTFDQDPSVLYFSIHRYEQGRFWPHLKASNWSTTGFGQGQGYTINVPWNQVGMRDADYIAAFLHVLLPVALEFQPQLVLVAAGFDALQGDPKGEMAATPAGFAQLTHLLMGLAGGKLILSLEGGYNLRALAEGVSASLHTLLGDPCPMLESPGAPCRSAQASVSCALEALEPFWEVLVRSTETVERDNMEEDNVEESEEEGPWEPPVLPILTWPVLQSRTGLVYDQNMMNHCNLWDSHHPEVPQRILRIMCRLEELGLAGRCLTLTPRPATEAELLTCHSAEYVGHLRATEKMKTRELHRESSNFDSIYICPSTFACAQLATGAACRLVEAVLSGEVLNGAAVVRPPGHHAEQDAACGFCFFNSVAVAARHAQTISGHALRILIVDWDVHHGNGTQHMFEDDPSVLYVSLHRYDHGTFFPMGDEGASSQIGRAAGTGFTVNVAWNGPRMGDADYLAAWHRLVLPIAYEFNPELVLVSAGFDAARGDPLGGCQVSPEGYAHLTHLLMGLASGRIILILEGGYNLTSISESMAACTRSLLGDPPPLLTLPRPPLSGALASITETIQVHRRYWRSLRVMKVEDREGPSSSKLVTKKAPQPAKPRLAERMTTREKKVLEAGMGKVTSASFGEESTPGQTNSETAVVALTQDQPSEAATGGATLAQTISEAAIGGAMLGQTTSEEAVGGATPDQTTSEETVGGAILDQTTSEDAVGGATLGQTTSEEAVGGATLAQTTSEAAMEGATLDQTTSEEAPGGTELIQTPLASSTDHQTPPTSPVQGTTPQISPSTLIGSLRTLELGSESQGASESQAPGEENLLGEAAGGQDMADSMLMQGSRGLTDQAIFYAVTPLPWCPHLVAVCPIPAAGLDVTQPCGDCGTIQENWVCLSCYQVYCGRYINGHMLQHHGNSGHPLVLSYIDLSAWCYYCQAYVHHQALLDVKNIAHQNKFGEDMPHPH

Variants of: B1
Conditions: with hdac9_mouse Hdac9, Q99N13
Chain of hdac9_mouse Hdac9, Q99N13 (Q99N13 whole entry): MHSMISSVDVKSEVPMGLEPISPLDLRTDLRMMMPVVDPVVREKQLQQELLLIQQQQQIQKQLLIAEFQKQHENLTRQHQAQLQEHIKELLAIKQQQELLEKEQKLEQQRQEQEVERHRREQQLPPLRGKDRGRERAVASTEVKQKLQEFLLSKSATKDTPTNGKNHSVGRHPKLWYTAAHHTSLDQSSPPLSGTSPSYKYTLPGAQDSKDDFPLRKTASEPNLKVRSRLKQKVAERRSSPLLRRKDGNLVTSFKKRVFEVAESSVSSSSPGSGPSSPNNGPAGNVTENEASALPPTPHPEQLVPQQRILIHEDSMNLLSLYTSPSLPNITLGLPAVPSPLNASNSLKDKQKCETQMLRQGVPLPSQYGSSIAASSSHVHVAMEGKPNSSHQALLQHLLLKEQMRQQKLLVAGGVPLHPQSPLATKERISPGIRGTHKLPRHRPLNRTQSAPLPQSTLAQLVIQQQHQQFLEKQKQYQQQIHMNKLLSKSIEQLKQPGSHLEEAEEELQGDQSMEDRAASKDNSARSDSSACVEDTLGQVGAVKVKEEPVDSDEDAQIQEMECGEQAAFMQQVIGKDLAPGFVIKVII

effect of a mutation on the interaction	Variant
disrupting interaction strength	H216A;H611A
decreasing interaction strength	H216A
decreasing interaction strength	H611A
